Data set [1] in a line: Effect of deglycosylation with PNGaseF on enzyme activity. Type of data set: biochemical. The conditions noted are these: 10 mM maltose, 15 min at 37° C., duplicate. The method, then:
Approximately 2 μg of purified enzyme was treated with PNGaseF (New England Biolabs) using denaturing and native conditions. Samples that were deglycosylated using denaturing conditions were analysed by SDS PAGE, while samples deglycosylated using native conditions were used to evaluate the impact of glycosylation on enzyme activity. The activity of enzymes was measured on 10 mM maltose at 37° C. for 15 min. (Table 7). N-glycosylation was predicted by NetNGlyc (http://www.cbs.dtu.dk/services/NetNGlyc/) while O-glycosylation was predicted by OGPET (http://ogpet.utep.edu/OGPET/).

Substrate in data set [2]: OC1OC[C@@H](O[C@@H]2OC[C@@H](O)[C@H](O)[C@H]2O)[C@H](O)[C@H]1O
Kind of data set: purified protein, by the assay type. The conditions noted are these: other: 37° C., pH 8.0.
Protocol: (§1) A chromogenic assay was used to measure hydrogen peroxide production (15). Reactions contained 0.1 mM 4aminoantipyrine (4AA), 1 mM phenol, 0.5 U horseradish peroxidase, 40 mM Tris-HCl (pH 8.0), and different substrates were initiated by adding 0.2 μg of enzymes to the 250 μL reaction mixture. The production of H2O2 was coupled to the oxidation of 4aminoantipyrine by horseradish peroxidase and detected at 500 nm. Reactions were incubated at 37° C. for 15 min to measure the specific activity of GOOX on 10 mM of monosaccharide or 1 mM of oligosaccharide.
(§2) At least 12 substrate concentrations were included to obtain kinetic parameters for each substrate. Initial rates were obtained by measuring reaction products every 30 s for 15 min at 37° C. and pH 8.0, and kinetic parameters were calculated using the Michaelis-Menten equation (GraphPad Prism5 Software).

Substrate in data set [3]: OC1OC[C@@H](O[C@@H]2OC[C@@H](O[C@@H]3OC[C@@H](O)[C@H](O)[C@H]3O)[C@H](O)[C@H]2O)[C@H](O)[C@H]1O
Kind of data set: purified protein, by the assay type. The conditions noted are these: other: 37° C., pH 8.0.
Protocol: as §1, §2

Substrate in data set [4]: OC[C@H]1OC(O)[C@H](O)[C@@H](O)[C@@H]1O
Kind of data set: purified protein, by the assay type. The settings on record: other: 37° C., pH 8.0.
Protocol: as §1, §2

Substrate in data set [5]: OC[C@H]1OC(O)[C@H](O)[C@@H](O)[C@H]1O
Kind of data set: purified protein, by the assay type. The settings on record: other: 37° C., pH 8.0.
Protocol: as §1, §2

Substrate in data set [6]: OC[C@H]1O[C@@H](O[C@H]2[C@H](O)[C@@H](O)C(O)O[C@@H]2CO)[C@H](O)[C@@H](O)[C@@H]1O
Briefly: purified protein, by the assay type. The conditions noted are these: other: 37° C., pH 8.0.
Protocol: as §1, §2

Substrate in data set [7]: OC[C@H]1O[C@@H](O[C@H]2[C@H](O)[C@@H](O)[C@H](O[C@H]3[C@H](O)[C@@H](O)C(O)O[C@@H]3CO)O[C@@H]2CO)[C@H](O)[C@@H](O)[C@@H]1O
Briefly: purified protein, by the assay type. The conditions noted are these: other: 37° C., pH 8.0.
Protocol: as §1, §2

Substrate in data set [8]: OC[C@H]1O[C@H](O[C@H]2[C@H](O)[C@@H](O)C(O)O[C@@H]2CO)[C@H](O)[C@@H](O)[C@@H]1O
Briefly: purified protein, by the assay type. The conditions noted are these: other: 37° C., pH 8.0.
Protocol: as §1, §2

The nature of data set [9]: Chromogenic H2O2 oxidase assay / kinetic analysis on NAG.
Protocol: as §1, §2
The nature of data set [10]: Chromogenic H2O2 oxidase assay / kinetic analysis on xylose.
Protocol: as §1, §2
Data set [11] is described as follows: Chromogenic H2O2 oxidase assay / kinetic analysis on glucose.
Protocol: as §1, §2
A short description of data set [12]: Chromogenic H2O2 oxidase assay / kinetic analysis on maltose.
Protocol: as §1, §2
Data set [13] in a line: Chromogenic H2O2 oxidase assay / kinetic analysis on galactose.
Protocol: as §1, §2
A short description of data set [14]: Chromogenic H2O2 oxidase assay / kinetic analysis on xylobiose.
Protocol: as §1, §2
Data set [15] in a line: Chromogenic H2O2 oxidase assay / kinetic analysis on cellobiose.
Protocol: as §1, §2
The nature of data set [16]: Chromogenic H2O2 oxidase assay / kinetic analysis on xylotriose.
Data set [17] in a line: Chromogenic H2O2 oxidase assay / kinetic analysis on cellotriose.
Protocol: as §1, §2
The nature of data set [18]: Chromogenic H2O2 oxidase assay on xylohexaose. The conditions noted are these: 1 mM xylohexaose; 37° C., 15 min.
Protocol: as §1
(§3) An additional eight mutations, identified as Y72F, Y72A, E247A, E314A, W351A, N388S, Q353N, Q384A, were created in GOOX-VN to assess the influence of these residues on the substrate selectivity of GOOX-VN. […] The specific activity of each mutant was then measured at 37° C. for 15 min using 10 mM mono-sugars and 1 mM oligosaccharides as performed for Y300A, Y300N, and W351F (Table 11).
Data set [19] can be described thus: Chromogenic H2O2 oxidase assay on xylotetraose. The settings on record: 1 mM xylotetraose; 37° C., 15 min.
Protocol: as §1, §3
Data set [20] in a line: Chromogenic H2O2 oxidase assay on xylopentaose. The settings on record: 1 mM xylopentaose; 37° C., 15 min.
Protocol: as §1, §3
The mark [21] stands for this setting: 10 mM galactose, 37° C., 15 min.
[22] abbreviates: 1 mM cellobiose, 37° C., 15 min.
Setting [23] is: 1 mM xylotriose, 37° C., 15 min.
Setting [24] is: 1 mM cellotriose, 37° C., 15 min.

B1: Acremonium strictum gluco-oligosaccharide oxidase GOOX-VN variant 3 W351F, SEQ ID NO. 8 (Sarocladium strictum; A38V/S388N/W351F) (protein)
chain: NSINACLAAADVEFHEEDSEGWEMDGTAFNLRVDYDPVAIAIPRSTEDIAAAVQCGLDAGVQISAKGGGHSYGSYGFGGEDGHLMLELDRMYRVSVDDDNVATIQGGARLGYTALELLDQGNRALTHGTCPAVGIGGHVLGGGYGFATHTHGLTLDWLVGATVVLADASIVHVSKTENADLFWALRGGGGGFAIVSEFEFNTFEAPEIITTYQVTTTWNRKQHVAGLKALQDWAENTMPRELSMRLEINANALNWEGNYFGNAKDLKKVLQPIMKKAGGKSTISKLVETDWYGQINTYLYGADLNITYNYDVHEYFYANSLTAPRLSDEAISAFVDYKFDNSSVRPGRGWFIQWDFHGGKNSALASHSNDETAYAHRDQLWLWQFYDNIYDYENNTSPYPESGFEFMQGFVATIEDTLPEDRKGKYFNYADTTLDKEEAQKLYWRGNLEKLQAIKAKYDPEDVFGNVVSVEPIA
In the case of B1, in data set [1] (deglycosylated with PNGaseF (native conditions)), the “Activity, Deglycosylated” value was found to be 3.19 nmol/min. In [1] (glycosylated enzyme), the “Activity, Glycosylated” value came out at 3.13 nmol/min. Moreover, the Km was 350 ± 10 µM in data set [2]; 310 ± 10 µM in data set [3]; 31050 ± 1330 µM in data set [4]; 36120 ± 1300 µM in [5]; 80 ± 0 µM in data set [6]; 110 ± 10 µM in data set [7]. Further, the Km in data set [8] was determined as 4960 ± 230 µM. Also, the kcat in data set [2] stood at 7.96 ± 0.0583 s⁻¹; in data set [3], 7.885 ± 0.0717 s⁻¹; in data set [6], 5.74 ± 0.0833 s⁻¹; in [7], 5.25 ± 0.107 s⁻¹; in data set [8], 5.38 ± 0.0733 s⁻¹. Moreover, the kcat/Km is 23000 ± 683 M⁻¹ s⁻¹ in data set [2]; 25700 ± 867 M⁻¹ s⁻¹ in data set [3]; 69000 ± 1000 M⁻¹ s⁻¹ in data set [6]; 47300 ± 4420 M⁻¹ s⁻¹ in [7]; 1080 ± 51.7 M⁻¹ s⁻¹ in data set [8]. Besides, the “Specific activity Defined substrate concentration” value in data set [9] (10 mM NAG, 37° C., 15 min) worked out at 0.1 µmol/mg/min; in data set [10] (10 mM xylose, 37° C., 15 min), 0.15 µmol/mg/min; in [11] (10 mM glucose, 37° C., 15 min) it was 1.31 µmol/mg/min; in [12] (1 mM maltose, 37° C., 15 min), 0.84 µmol/mg/min; in [13] (setting [21]), 1.30 µmol/mg/min; in [14] (1 mM xylobiose, 37° C., 15 min), 5.93 µmol/mg/min. The “Specific activity Defined substrate concentration” value in [15] (setting [22]) turned out to be 5.10 µmol/mg/min; in [16] (setting [23]), 5.95 µmol/mg/min; in data set [17] (setting [24]) it was 4.62 µmol/mg/min. Besides, the “Specific activity From Vmax” value in data set [9] (substrate NAG) stood at 7.71 µmol/mg/min; in data set [10] (substrate xylose), 4.57 µmol/mg/min; in data set [11] (substrate glucose), 5.57 µmol/mg/min; in data set [12] (substrate maltose), 5.33 µmol/mg/min; in data set [13] (substrate galactose) it was 6.49 µmol/mg/min; in data set [14] (substrate xylobiose), 7.88 µmol/mg/min. In addition, the figures for the “Specific activity From Vmax” value in data set [15] (substrate cellobiose), in [16] (substrate xylotriose) and in [17] (substrate cellotriose) were 5.68 µmol/mg/min, 7.81 µmol/mg/min and 5.20 µmol/mg/min, respectively.

B2: W351A: GOOX-VN mutant with W351A substitution (protein)
chain: NSINACLAAADVEFHEEDSEGWEMDGTAFNLRVDYDPVAIAIPRSTEDIAAAVQCGLDAGVQISAKGGGHSYGSYGFGGEDGHLMLELDRMYRVSVDDDNVATIQGGARLGYTALELLDQGNRALTHGTCPAVGIGGHVLGGGYGFATHTHGLTLDWLVGATVVLADASIVHVSKTENADLFWALRGGGGGFAIVSEFEFNTFEAPEIITTYQVTTTWNRKQHVAGLKALQDWAENTMPRELSMRLEINANALNWEGNYFGNAKDLKKVLQPIMKKAGGKSTISKLVETDWYGQINTYLYGADLNITYNYDVHEYFYANSLTAPRLSDEAISAFVDYKFDNSSVRPGRGWAIQWDFHGGKNSALASHSNDETAYAHRDQLWLWQFYDNIYDYENNTSPYPESGFEFMQGFVATIEDTLPEDRKGKYFNYADTTLDKEEAQKLYWRGNLEKLQAIKAKYDPEDVFGNVVSVEPIA
With B2, the “Specific Activity of Enzyme Variants” value in [18] came out at 0.5 µmol/min/mg; in data set [19], 0.3 µmol/min/mg; in [20], 0.3 µmol/min/mg; in data set [13] (setting [21]), 0.3 µmol/min/mg; in data set [14] (1 mM xylobiose, 37° C., 15 min), 0.1 µmol/min/mg; in data set [15] (setting [22]), 0.6 µmol/min/mg. Also, the entries for the “Specific Activity of Enzyme Variants” value in data set [16] (setting [23]) and in [17] (setting [24]) were 0.1 µmol/min/mg and 1.1 µmol/min/mg, respectively.

B3: E247A: GOOX-VN mutant with E247A substitution (protein)
chain: NSINACLAAADVEFHEEDSEGWEMDGTAFNLRVDYDPVAIAIPRSTEDIAAAVQCGLDAGVQISAKGGGHSYGSYGFGGEDGHLMLELDRMYRVSVDDDNVATIQGGARLGYTALELLDQGNRALTHGTCPAVGIGGHVLGGGYGFATHTHGLTLDWLVGATVVLADASIVHVSKTENADLFWALRGGGGGFAIVSEFEFNTFEAPEIITTYQVTTTWNRKQHVAGLKALQDWAENTMPRELSMRLAINANALNWEGNYFGNAKDLKKVLQPIMKKAGGKSTISKLVETDWYGQINTYLYGADLNITYNYDVHEYFYANSLTAPRLSDEAISAFVDYKFDNSSVRPGRGWWIQWDFHGGKNSALASHSNDETAYAHRDQLWLWQFYDNIYDYENNTSPYPESGFEFMQGFVATIEDTLPEDRKGKYFNYADTTLDKEEAQKLYWRGNLEKLQAIKAKYDPEDVFGNVVSVEPIA
As to B3, the “Specific Activity of Enzyme Variants” value came out at 5.1 µmol/min/mg in data set [18]; 5.3 µmol/min/mg in [19]; 5.2 µmol/min/mg in data set [20]; 0.4 µmol/min/mg in data set [11] (10 mM glucose, 37° C., 15 min); 4.2 µmol/min/mg in [14] (1 mM xylobiose, 37° C., 15 min); 2.2 µmol/min/mg in data set [15] (setting [22]). Also, the “Specific Activity of Enzyme Variants” value in data set [16] (setting [23]) came to 3.5 µmol/min/mg; in data set [17] (setting [24]), 2.7 µmol/min/mg.

In general, Km refers to the concentration of substrate that gives half-maximal velocity. As a reminder, the kcat is the number of substrate molecules converted per active site and unit of time at saturation. For orientation: kcat/Km means the turnover number divided by the Michaelis constant.

(Values after patent US20140057332A1, “GLUCO-OLIGOSACCHARIDE OXIDASES FROM ACREMONIUM STRICTUM AND USES THEREOF” (The Governing Council of the University of Toronto, priority 2011, published 2014).)
